Data reported in the supplement of paper PMC10567573.

B1: ESRRG (parent)
chain: YSCPATNECEITKRRRKSCQACRF

Variants of: B1
Test: protein stability index of a GFP-peptide fusion (GPS, HEK-293T) (PSI 1-6); higher = more stable
Details: c terminus: a fixed tail appended
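Further: lentivirally expressed fusions sorted by FACS into six bins by GFP to DsRed ratio, PSI derived from sequencing read proportions per bin multiplied by bin number.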

First: YSLPATNECEITKRRRKSCQACRF [C3L]
Second: YSGPATNECEITKRRRKSCQACRF [C3G]
The protein stability index of the first is higher: 3.53 for the first, 3.44 for the second.

First: YSFPATNECEITKRRRKSCQACRF [C3F]
Second: YSIPATNECEITKRRRKSCQACRF [C3I]
The protein stability index of the first is lower: 3.12 for the first, 3.37 for the second.

Going from YSDPATNECEITKRRRKSCQACRF [C3D] to ESCPATNECEITKRRRKSCQACRF [Y1E], the protein stability index rises from 3.72 to 4.13.

First: LSCPATNECEITKRRRKSCQACRF [Y1L]
Second: NSCPATNECEITKRRRKSCQACRF [Y1N]
The protein stability index of the first is lower: 4.09 for the first, 4.29 for the second.

First: RSCPATNECEITKRRRKSCQACRF [Y1R]
Second: SSCPATNECEITKRRRKSCQACRF [Y1S]
The protein stability index of the first is lower: 4.21 for the first, 4.28 for the second.

First: VSCPATNECEITKRRRKSCQACRF [Y1V]
Second: CSCPATNECEITKRRRKSCQACRF [Y1C]
The protein stability index of the first is lower: 3.93 for the first, 4.88 for the second.

First: YSCPATNECEITKIRRKSCQACRF [R14I]
Second: YSCPATNECEITKPRRKSCQACRF [R14P]
The protein stability index of the first is lower: 3.03 for the first, 3.13 for the second.

First: YSCPATNECEITKKRRKSCQACRF [R14K]
Second: YSCPATNECEITKCRRKSCQACRF [R14C]
The protein stability index of the first is lower: 3.52 for the first, 4.61 for the second.

Going from YSCPATNECEITKARRKSCQACRF [R14A] to YSCPATNECEITKDRRKSCQACRF [R14D], the protein stability index rises from 3.51 to 3.76.

First: YSCPATNECEITKNRRKSCQACRF [R14N]
Second: YSCPATNECEITKTRRKSCQACRF [R14T]
The protein stability index of the first is higher: 3.63 for the first, 3.42 for the second.

First: YSCPATNECEIQKRRRKSCQACRF [T12Q]
Second: YSCPATNECEIGKRRRKSCQACRF [T12G]
The protein stability index of the first is lower: 3.25 for the first, 3.41 for the second.

First: YSCPATNECEIYKRRRKSCQACRF [T12Y]
Second: YSCPATNECEIEKRRRKSCQACRF [T12E]
The protein stability index of the first is lower: 2.69 for the first, 3.75 for the second.

First: YSCPATNECEIPKRRRKSCQACRF [T12P]
Second: YSCPATNECEICKRRRKSCQACRF [T12C]
The protein stability index of the first is higher: 3.86 for the first, 3.85 for the second.

Compared with YSCPATNECEIRKRRRKSCQACRF [T12R], YSCPATNECEIMKRRRKSCQACRF [T12M] is lower in protein stability index: 3.56 for the first, 2.97 for the second.

Compared with YSCPATNECEINKRRRKSCQACRF [T12N], YSCPATNECEIDKRRRKSCQACRF [T12D] is higher in protein stability index: 3.59 for the first, 3.74 for the second.

First: YSCPATNECEIWKRRRKSCQACRF [T12W]
Second: YSCPATNECEIIKRRRKSCQACRF [T12I]
The protein stability index of the first is lower: 2.31 for the first, 2.69 for the second.

Compared with YSCPATSECEITKRRRKSCQACRF [N7S], YSCPATKECEITKRRRKSCQACRF [N7K] is higher in protein stability index: 3.01 for the first, 3.57 for the second.

Going from YSCPATHECEITKRRRKSCQACRF [N7H] to YSCPATIECEITKRRRKSCQACRF [N7I], the protein stability index falls from 3.88 to 2.83.

First: YSCPATVECEITKRRRKSCQACRF [N7V]
Second: YSCPATWECEITKRRRKSCQACRF [N7W]
The protein stability index of the first is higher: 3.14 for the first, 2.35 for the second.

Going from YSCPATCECEITKRRRKSCQACRF [N7C] to YSCPATAECEITKRRRKSCQACRF [N7A], the protein stability index rises from 2.42 to 2.64.

Going from YSCPATTECEITKRRRKSCQACRF [N7T] to YSCPATMECEITKRRRKSCQACRF [N7M], the protein stability index falls from 3.61 to 2.96.

First: YSCPATQECEITKRRRKSCQACRF [N7Q]
Second: YSCPATNESEITKRRRKSCQACRF [C9S]
The protein stability index of the first is lower: 3.36 for the first, 3.66 for the second.

Compared with YSCPATNEYEITKRRRKSCQACRF [C9Y], YSCPATNEGEITKRRRKSCQACRF [C9G] is higher in protein stability index: 2.69 for the first, 3.82 for the second.

Going from YSCPATNENEITKRRRKSCQACRF [C9N] to YSCPATNEHEITKRRRKSCQACRF [C9H], the protein stability index rises from 3.18 to 3.68.

Going from YSCPATNEAEITKRRRKSCQACRF [C9A] to YSCPATNEFEITKRRRKSCQACRF [C9F], the protein stability index falls from 3.39 to 3.32.

Going from YSCPATNEDEITKRRRKSCQACRF [C9D] to YSCPATNECEITKRRRKSCQMCRF [A21M], the protein stability index falls from 3.4 to 2.46.

Going from YSCPATNECEITKRRRKSCQPCRF [A21P] to YSCPATNECEITKRRRKSCQSCRF [A21S], the protein stability index falls from 3.29 to 3.23.

First: YSCPATNECEITKRRRKSCQGCRF [A21G]
Second: YSCPATNECEITKRRRKSCQFCRF [A21F]
The protein stability index of the first is higher: 3.44 for the first, 2.94 for the second.

First: YSCPATNECEITKRRRKSCQQCRF [A21Q]
Second: YSCPATNECEITKRRRKSCQHCRF [A21H]
The protein stability index of the first is lower: 3.29 for the first, 4.06 for the second.

First: YSCPATNECEITKRRRKSCQLCRF [A21L]
Second: YSCPATNECEITKRRRKSCQCCRF [A21C]
The protein stability index of the first is lower: 2.31 for the first, 3.66 for the second.

First: YSCPATNECEITKRRRKSHQACRF [C19H]
Second: YSCPATNECEITKRRRKSFQACRF [C19F]
The protein stability index of the first is higher: 3.69 for the first, 3.17 for the second.

Compared with YSCPATNECEITKRRRKSKQACRF [C19K], YSCPATNECEITKRRRKSWQACRF [C19W] is lower in protein stability index: 3.94 for the first, 3.15 for the second.

Going from YSCPATNECEITKRRRKSYQACRF [C19Y] to YSCPATNECEITKRRRKSEQACRF [C19E], the protein stability index rises from 3.44 to 3.84.

Going from YSCPWTNECEITKRRRKSCQACRF [A5W] to YSCPRTNECEITKRRRKSCQACRF [A5R], the protein stability index rises from 1.51 to 2.89.

Going from YSCPYTNECEITKRRRKSCQACRF [A5Y] to YSCPPTNECEITKRRRKSCQACRF [A5P], the protein stability index rises from 3.05 to 3.12.

First: YSCPCTNECEITKRRRKSCQACRF [A5C]
Second: YSCPLTNECEITKRRRKSCQACRF [A5L]
The protein stability index of the first is higher: 3.43 for the first, 3.2 for the second.

Going from YSCPFTNECEITKRRRKSCQACRF [A5F] to YSCIATNECEITKRRRKSCQACRF [P4I], the protein stability index falls from 2.79 to 2.53.

Going from YSCAATNECEITKRRRKSCQACRF [P4A] to YSCMATNECEITKRRRKSCQACRF [P4M], the protein stability index falls from 3.03 to 2.76.

First: YSCYATNECEITKRRRKSCQACRF [P4Y]
Second: YSCQATNECEITKRRRKSCQACRF [P4Q]
The protein stability index of the first is lower: 2.59 for the first, 3.11 for the second.

Compared with YSCKATNECEITKRRRKSCQACRF [P4K], YSCNATNECEITKRRRKSCQACRF [P4N] is higher in protein stability index: 3.18 for the first, 3.24 for the second.

Compared with YSCSATNECEITKRRRKSCQACRF [P4S], YSCTATNECEITKRRRKSCQACRF [P4T] is higher in protein stability index: 3.11 for the first, 3.21 for the second.

First: YSCPATNVCEITKRRRKSCQACRF [E8V]
Second: YSCPATNICEITKRRRKSCQACRF [E8I]
The protein stability index of the first is higher: 3.05 for the first, 2.87 for the second.

First: YSCPATNNCEITKRRRKSCQACRF [E8N]
Second: YSCPATNLCEITKRRRKSCQACRF [E8L]
The protein stability index of the first is higher: 3.29 for the first, 3.02 for the second.

First: YSCPATNPCEITKRRRKSCQACRF [E8P]
Second: YSCPATNKCEITKRRRKSCQACRF [E8K]
The protein stability index of the first is higher: 3.26 for the first, 3.14 for the second.

Going from YSCPATNGCEITKRRRKSCQACRF [E8G] to YSCPATNECEITKRRRRSCQACRF [K17R], the protein stability index falls from 3.54 to 3.31.

Compared with YSCPATNECEITKRRRYSCQACRF [K17Y], YSCPATNECEITKRRRNSCQACRF [K17N] is higher in protein stability index: 2.35 for the first, 3.25 for the second.

Compared with YSCPATNECEITKRRRTSCQACRF [K17T], YSCPATNECEITKRRRSSCQACRF [K17S] is higher in protein stability index: 2.92 for the first, 3 for the second.
